Measured values as given in US20180155451A1 (published 2018).

T1: FcγRIIb, extracellular domain with C-terminal His tag (human, UniProt P31994 43-217)
T1 construct: extracellular domain; Soluble receptor expressed in FreeStyle293 cells; analyte in Biacore; also called FcgRIIb; 2b; not shown: C-terminal His tag
T1 sequence (looked up): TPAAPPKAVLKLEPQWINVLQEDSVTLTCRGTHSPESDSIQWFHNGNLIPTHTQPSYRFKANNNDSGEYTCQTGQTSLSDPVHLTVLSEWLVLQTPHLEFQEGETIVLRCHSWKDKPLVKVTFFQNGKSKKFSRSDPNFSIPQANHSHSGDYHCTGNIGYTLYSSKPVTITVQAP

T2: FcγRIIa H (FcγRIIa, type H allotype, His at position 131), extracellular domain with C-terminal His tag (human, UniProt P12318 34-217)
T2 construct: extracellular domain; Soluble receptor expressed in FreeStyle293 cells; analyte in Biacore; also called FcgRIIa H; 2aH; not shown: C-terminal His tag
T2 sequence (looked up): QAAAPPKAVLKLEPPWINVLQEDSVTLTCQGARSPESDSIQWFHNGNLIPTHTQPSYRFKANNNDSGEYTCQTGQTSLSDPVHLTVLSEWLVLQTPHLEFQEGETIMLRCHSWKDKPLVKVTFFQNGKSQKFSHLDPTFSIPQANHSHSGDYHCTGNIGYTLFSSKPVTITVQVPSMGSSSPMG

B1: GpH7-A5/GpH7-B3 variant D270_14T/GpL16-k0 (antibody, human IgG1, kappa)
heavy 1: not shown
heavy 2: not shown
light: DIVMTQSPLSLPVTPGEPASISCQASESLVHSNRNTYLHWYLQKPGQSPQLLIYKVSNRFSGVPDRFSGSGSGTDFTLKISRVEAEDVGVYYCSQNTHVPPTFGQGTKVEIERTVAAPSVFIFPPSDEQLKSGTASVVCLLNNFYPREAKVQWKVDNALQSGNSQESVTEQDSKDSTYSLSSTLTLSKADYEKHKVYACEVTHQGLSSPVTKSFNRGEC
notes: Heterodimerized IgG1; mutation only in the GpH7-B3 chain; also called He Ab
B2: GpH7-A5/GpH7-B3 variant E269_06M/GpL16-k0 (antibody, human IgG1, kappa)
heavy 1: not shown
heavy 2: not shown
light: B1 light
notes: as for B1
B3: GpH7-A5/GpH7-B3 variant S298_07I/GpL16-k0 (antibody, human IgG1, kappa)
heavy 1: not shown
heavy 2: not shown
light: B1 light
notes: as for B1
B4: GpH7-A5/GpH7-B3 variant Q295_12R/GpL16-k0 (antibody, human IgG1, kappa)
heavy 1: not shown
heavy 2: not shown
light: B1 light
notes: as for B1
B5: GpH7-A5/GpH7-B3 variant S298_18N/GpL16-k0 (antibody, human IgG1, kappa)
heavy 1: not shown
heavy 2: not shown
light: B1 light
notes: as for B1
B6: GpH7-A5/GpH7-B3 variant E269_20W/GpL16-k0 (antibody, human IgG1, kappa)
heavy 1: not shown
heavy 2: not shown
light: B1 light
notes: as for B1
B7: GpH7-A5/GpH7-B3 variant Q295_13S/GpL16-k0 (antibody, human IgG1, kappa)
heavy 1: not shown
heavy 2: not shown
light: B1 light
notes: as for B1
B8: GpH7-A5/GpH7-B3 variant E269_19Q/GpL16-k0 (antibody, human IgG1, kappa)
heavy 1: not shown
heavy 2: not shown
light: B1 light
notes: as for B1
B9: GpH7-A5/GpH7-B3 variant Q295_03V/GpL16-k0 (antibody, human IgG1, kappa)
heavy 1: not shown
heavy 2: not shown
light: B1 light
notes: as for B1
B10: GpH7-A5/GpH7-B3 variant P271_20W/GpL16-k0 (antibody, human IgG1, kappa)
heavy 1: not shown
heavy 2: not shown
light: B1 light
notes: as for B1
B11: GpH7-A5/GpH7-B3 variant E269_08L/GpL16-k0 (antibody, human IgG1, kappa)
heavy 1: not shown
heavy 2: not shown
light: B1 light
notes: as for B1
B12: GpH7-A5/GpH7-B3 variant E269_12R/GpL16-k0 (antibody, human IgG1, kappa)
heavy 1: not shown
heavy 2: not shown
light: B1 light
notes: as for B1
B13: GpH7-A5/GpH7-B3 variant Q295_16H/GpL16-k0 (antibody, human IgG1, kappa)
heavy 1: not shown
heavy 2: not shown
light: B1 light
notes: as for B1
B14: GpH7-A5/GpH7-B3 variant S298_10E/GpL16-k0 (antibody, human IgG1, kappa)
heavy 1: not shown
heavy 2: not shown
light: B1 light
notes: as for B1
B15: GpH7-A5/GpH7-B3 variant D270_16H/GpL16-k0 (antibody, human IgG1, kappa)
heavy 1: not shown
heavy 2: not shown
light: B1 light
notes: as for B1
B16: GpH7-A5/GpH7-B3 variant E269_03V/GpL16-k0 (antibody, human IgG1, kappa)
heavy 1: not shown
heavy 2: not shown
light: B1 light
notes: as for B1
B17: GpH7-A5/GpH7-B3 variant E269_13S/GpL16-k0 (antibody, human IgG1, kappa)
heavy 1: not shown
heavy 2: not shown
light: B1 light
notes: as for B1
B18: GpH7-A5/GpH7-B3 variant D270_18N/GpL16-k0 (antibody, human IgG1, kappa)
heavy 1: not shown
heavy 2: not shown
light: B1 light
notes: as for B1
B19: GpH7-A5/GpH7-B3 variant E269_15Y/GpL16-k0 (antibody, human IgG1, kappa)
heavy 1: not shown
heavy 2: not shown
light: B1 light
notes: as for B1

The binders below were run against T1, FcγRIIb, extracellular domain with … (assay: SPR (Biacore), captured antibody, FcγR as analyte).

He/Con_2b	Binder
57.8 relative, GpH7-A5/GpH7-B3/GpL16-k0 = 100	B1
46.7 relative, GpH7-A5/GpH7-B3/GpL16-k0 = 100	B2
70.6 relative, GpH7-A5/GpH7-B3/GpL16-k0 = 100	B3
65.2 relative, GpH7-A5/GpH7-B3/GpL16-k0 = 100	B4
48.1 relative, GpH7-A5/GpH7-B3/GpL16-k0 = 100	B5
42.5 relative, GpH7-A5/GpH7-B3/GpL16-k0 = 100	B6
56.9 relative, GpH7-A5/GpH7-B3/GpL16-k0 = 100	B7
44.3 relative, GpH7-A5/GpH7-B3/GpL16-k0 = 100	B8
75.7 relative, GpH7-A5/GpH7-B3/GpL16-k0 = 100	B9
58.1 relative, GpH7-A5/GpH7-B3/GpL16-k0 = 100	B10
42.9 relative, GpH7-A5/GpH7-B3/GpL16-k0 = 100	B11
25.2 relative, GpH7-A5/GpH7-B3/GpL16-k0 = 100	B12
62.7 relative, GpH7-A5/GpH7-B3/GpL16-k0 = 100	B13
47.6 relative, GpH7-A5/GpH7-B3/GpL16-k0 = 100	B14
47.2 relative, GpH7-A5/GpH7-B3/GpL16-k0 = 100	B15
45.1 relative, GpH7-A5/GpH7-B3/GpL16-k0 = 100	B16
47.8 relative, GpH7-A5/GpH7-B3/GpL16-k0 = 100	B17
40.3 relative, GpH7-A5/GpH7-B3/GpL16-k0 = 100	B18
44.7 relative, GpH7-A5/GpH7-B3/GpL16-k0 = 100	B19

What follows are binders tested against T2, FcγRIIa H (FcγRIIa, type H allotype, …) (assay: SPR (Biacore), captured antibody, FcγR as analyte).

He/Con_2aH	Binder
75.3 relative, GpH7-A5/GpH7-B3/GpL16-k0 = 100	B1
73.6 relative, GpH7-A5/GpH7-B3/GpL16-k0 = 100	B2
86.9 relative, GpH7-A5/GpH7-B3/GpL16-k0 = 100	B3
84.1 relative, GpH7-A5/GpH7-B3/GpL16-k0 = 100	B4
61.6 relative, GpH7-A5/GpH7-B3/GpL16-k0 = 100	B5
60.9 relative, GpH7-A5/GpH7-B3/GpL16-k0 = 100	B6
69.4 relative, GpH7-A5/GpH7-B3/GpL16-k0 = 100	B7
80.2 relative, GpH7-A5/GpH7-B3/GpL16-k0 = 100	B8
92 relative, GpH7-A5/GpH7-B3/GpL16-k0 = 100	B9
77.4 relative, GpH7-A5/GpH7-B3/GpL16-k0 = 100	B10
67.4 relative, GpH7-A5/GpH7-B3/GpL16-k0 = 100	B11
46.8 relative, GpH7-A5/GpH7-B3/GpL16-k0 = 100	B12
78.6 relative, GpH7-A5/GpH7-B3/GpL16-k0 = 100	B13
58 relative, GpH7-A5/GpH7-B3/GpL16-k0 = 100	B14
71.5 relative, GpH7-A5/GpH7-B3/GpL16-k0 = 100	B15
67.5 relative, GpH7-A5/GpH7-B3/GpL16-k0 = 100	B16
70 relative, GpH7-A5/GpH7-B3/GpL16-k0 = 100	B17
62.5 relative, GpH7-A5/GpH7-B3/GpL16-k0 = 100	B18
70.4 relative, GpH7-A5/GpH7-B3/GpL16-k0 = 100	B19

The binders below were run against T2, FcγRIIa H (FcγRIIa, type H allotype, …) (assay: ratio of He/Con_2aH to He/Con_2b (FcγRIIa H over FcγRIIb), SPR).

He_2aH/2b (IIaH/IIb)	Binder
1.3	B1
1.58	B2
1.23	B3
1.29	B4
1.28	B5
1.43	B6
1.22	B7
1.81	B8
1.22	B9
1.33	B10
1.57	B11
1.86	B12
1.25	B13
1.22	B14
1.51	B15
1.49	B16
1.46	B17
1.55	B18
1.57	B19
